The supplement of paper PMC9112550, “Optimization of the antimicrobial peptide Bac7 by deep mutational scanning” (BMC Biology, 2022)

tested on: Escherichia coli TOP10; test: shrunken log2 fold change of peptide-encoding DNA abundance (4.5 h post-induction vs induction); higher = less antimicrobial activity (less host growth inhibition); settings: time post-induction: 4.5 h; library: site-saturation at positions 5, 18, 19, 20
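Further: peptides expressed intracellularly from a pBAD plasmid library in pooled LB shake-flask culture, induced with 0.3% L-arabinose, DNA abundance read by NGS, three biological replicates, DESeq2 with apeglm shrinkage.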

Sequence | shrunken log2 fold change
RRIRARPPRLPRPRPRPQCRPRP | -0.161
RRIRRRPPRLPRPRPRPDNVPRP | -0.211
RRIRLRPPRLPRPRPRPFCAPRP | 0.106
RRIRTRPPRLPRPRPRPFFFPRP | 0.0893
RRIRDRPPRLPRPRPRPKWRPRP | 0.344
RRIRWRPPRLPRPRPRPKMMPRP | -0.106
RRIRSRPPRLPRPRPRPYHKPRP | -0.404
RRIRNRPPRLPRPRPRPSIIPRP | -0.856
RRIRSRPPRLPRPRPRPESAPRP | 0.278
RRIRTRPPRLPRPRPRPSWAPRP | 0.195
RRIRGRPPRLPRPRPRPPKKPRP | 1.03
RRIRCRPPRLPRPRPRPFYMPRP | -1.15
RRIRCRPPRLPRPRPRPPFLPRP | -0.0759
RRIRQRPPRLPRPRPRPLKGPRP | -0.272
RRIRTRPPRLPRPRPRPWPPPRP | 0.154
RRIRGRPPRLPRPRPRPRLHPRP | 0.653
RRIRKRPPRLPRPRPRPCQPPRP | 0.227
RRIRNRPPRLPRPRPRPPSTPRP | 0.0609
RRIRERPPRLPRPRPRPEWEPRP | -0.0115
RRIRGRPPRLPRPRPRPQVCPRP | 2.63e-05
RRIRCRPPRLPRPRPRPFNYPRP | -0.836
RRIRWRPPRLPRPRPRPNWTPRP | 0.0351
RRIRYRPPRLPRPRPRPFGSPRP | -0.0685
RRIRRRPPRLPRPRPRPAIWPRP | 0.356
RRIRTRPPRLPRPRPRPTRKPRP | 0.443

Sequence | shrunken log2 fold change
RRIRDRPPRLPRPRPRPPFHPRP | 0.0293
RRIRWRPPRLPRPRPRPQLMPRP | 0.13
RRIRKRPPRLPRPRPRPACNPRP | -0.0224
RRIRNRPPRLPRPRPRPSPMPRP | -0.0245
RRIRPRPPRLPRPRPRPICIPRP | -0.158
RRIRNRPPRLPRPRPRPQAEPRP | -0.155
RRIRKRPPRLPRPRPRPMEIPRP | 0.155
RRIRERPPRLPRPRPRPFYHPRP | -1.01
RRIRWRPPRLPRPRPRPKHEPRP | 0.288
RRIRPRPPRLPRPRPRPVGIPRP | 0.0618
RRIRTRPPRLPRPRPRPCTGPRP | -0.0103
RRIRERPPRLPRPRPRPEYCPRP | 0.0191
RRIRARPPRLPRPRPRPICQPRP | 0.216
RRIRPRPPRLPRPRPRPYVAPRP | -0.465
RRIRNRPPRLPRPRPRPPGIPRP | -0.0351
RRIRRRPPRLPRPRPRPTWRPRP | 0.667
RRIRVRPPRLPRPRPRPICKPRP | -0.149
RRIRCRPPRLPRPRPRPTNFPRP | -0.124
RRIRNRPPRLPRPRPRPGVKPRP | -0.117
RRIRIRPPRLPRPRPRPMRYPRP | -0.176
RRIRVRPPRLPRPRPRPMTFPRP | -0.0219
RRIRNRPPRLPRPRPRPVWHPRP | -0.154
RRIRGRPPRLPRPRPRPFHDPRP | -0.0838
RRIRFRPPRLPRPRPRPAIEPRP | 0.519
RRIRPRPPRLPRPRPRPLMFPRP | -0.138

Sequence | shrunken log2 fold change
RRIRPRPPRLPRPRPRPAIRPRP | 0.0298
RRIRIRPPRLPRPRPRPAGEPRP | 0.171
RRIRQRPPRLPRPRPRPDCIPRP | -0.0167
RRIRCRPPRLPRPRPRPQHVPRP | -0.199
RRIRFRPPRLPRPRPRPQEMPRP | 0.126
RRIRMRPPRLPRPRPRPQQNPRP | 0.281
RRIRARPPRLPRPRPRPSAGPRP | 0.65
RRIRSRPPRLPRPRPRPLAVPRP | 0.0333
RRIRMRPPRLPRPRPRPCCLPRP | 0.273
RRIRVRPPRLPRPRPRPWFWPRP | 0.121
RRIRSRPPRLPRPRPRPIDAPRP | -0.101
RRIRCRPPRLPRPRPRPYYEPRP | -1.27
RRIRSRPPRLPRPRPRPKYFPRP | -0.146
RRIRCRPPRLPRPRPRPWKGPRP | -0.0267
RRIRQRPPRLPRPRPRPSEGPRP | 0.0871
RRIRHRPPRLPRPRPRPPVSPRP | -0.0862
RRIRRRPPRLPRPRPRPNGRPRP | -0.0152
RRIRERPPRLPRPRPRPDIYPRP | 0.137
RRIRFRPPRLPRPRPRPWCIPRP | -0.369
RRIRFRPPRLPRPRPRPAYDPRP | -0.293
RRIRYRPPRLPRPRPRPEVMPRP | 0.00902
RRIRRRPPRLPRPRPRPPEVPRP | 0.821
RRIRRRPPRLPRPRPRPAEAPRP | 0.148
RRIRMRPPRLPRPRPRPHAKPRP | 0.256
RRIRTRPPRLPRPRPRPFTIPRP | -0.293

Sequence | shrunken log2 fold change
RRIRNRPPRLPRPRPRPHMDPRP | -0.384
RRIRPRPPRLPRPRPRPPYTPRP | -0.232
RRIRRRPPRLPRPRPRPEPPPRP | 1.02
RRIRIRPPRLPRPRPRPIYVPRP | -0.24
RRIRWRPPRLPRPRPRPRDAPRP | 0.632
RRIRYRPPRLPRPRPRPKIGPRP | -0.177
RRIRQRPPRLPRPRPRPYNTPRP | -0.325
RRIRNRPPRLPRPRPRPRFLPRP | 0.0562
RRIRSRPPRLPRPRPRPYMWPRP | -0.744
RRIRWRPPRLPRPRPRPANNPRP | -0.205
RRIRMRPPRLPRPRPRPETMPRP | 3.17
RRIRERPPRLPRPRPRPRPVPRP | 0.114
RRIRARPPRLPRPRPRPNWGPRP | -0.267
RRIRVRPPRLPRPRPRPQEKPRP | 0.0369
RRIRIRPPRLPRPRPRPFELPRP | -0.138
RRIRERPPRLPRPRPRPMCQPRP | -0.051
RRIRGRPPRLPRPRPRPREGPRP | 1.42
RRIRNRPPRLPRPRPRPVDDPRP | 0.0318
RRIRARPPRLPRPRPRPVWHPRP | 0.324
RRIRARPPRLPRPRPRPAAVPRP | 0.8
RRIRTRPPRLPRPRPRPDKWPRP | 0.0238
RRIRERPPRLPRPRPRPSDKPRP | -0.982
RRIRARPPRLPRPRPRPHLVPRP | 0.0104
RRIRPRPPRLPRPRPRPWYLPRP | -0.591
RRIRKRPPRLPRPRPRPSAVPRP | 0.0941

Sequence | shrunken log2 fold change
RRIRKRPPRLPRPRPRPTVRPRP | 0.899
RRIRWRPPRLPRPRPRPYEGPRP | -0.874
RRIRDRPPRLPRPRPRPMLKPRP | 0.111
RRIRHRPPRLPRPRPRPCADPRP | -0.12
RRIRIRPPRLPRPRPRPPCCPRP | -0.31
RRIRFRPPRLPRPRPRPLKLPRP | -0.147
RRIRLRPPRLPRPRPRPSFQPRP | -0.514
RRIRRRPPRLPRPRPRPMLSPRP | 0.00534
RRIRGRPPRLPRPRPRPIGQPRP | 0.0805
RRIRCRPPRLPRPRPRPDLFPRP | 0.162
RRIRLRPPRLPRPRPRPKYQPRP | -0.141
RRIRKRPPRLPRPRPRPENKPRP | 0.528
RRIRIRPPRLPRPRPRPKLEPRP | -0.136
RRIRYRPPRLPRPRPRPSMGPRP | -0.613
RRIRKRPPRLPRPRPRPERDPRP | 0.621
RRIRHRPPRLPRPRPRPTWAPRP | 0.303
RRIRWRPPRLPRPRPRPLCAPRP | 0.776
RRIRHRPPRLPRPRPRPYMAPRP | -0.339
RRIRERPPRLPRPRPRPHIVPRP | -0.0314
RRIRRRPPRLPRPRPRPFCIPRP | -0.174
RRIRPRPPRLPRPRPRPEQVPRP | 0.0348
RRIRKRPPRLPRPRPRPIDFPRP | 0.131
RRIRIRPPRLPRPRPRPKMYPRP | -0.25
RRIRPRPPRLPRPRPRPRQPPRP | 0.113
RRIRNRPPRLPRPRPRPYFAPRP | -0.198

Sequence | shrunken log2 fold change
RRIRTRPPRLPRPRPRPFRPPRP | 0.0775
RRIRNRPPRLPRPRPRPHTEPRP | 0.0434
RRIRFRPPRLPRPRPRPPPKPRP | 1.58
RRIRERPPRLPRPRPRPSDDPRP | -0.0902
RRIRSRPPRLPRPRPRPREMPRP | 0.159
RRIRIRPPRLPRPRPRPGHMPRP | 0.0184
RRIRSRPPRLPRPRPRPPNRPRP | 0.238
RRIRCRPPRLPRPRPRPQNGPRP | 0.0924
RRIRTRPPRLPRPRPRPWQSPRP | 0.0475
RRIRQRPPRLPRPRPRPPQMPRP | -0.089
RRIRRRPPRLPRPRPRPSQAPRP | 0.113
RRIRCRPPRLPRPRPRPFPIPRP | -0.305
RRIRERPPRLPRPRPRPMSAPRP | 0.00792
RRIRFRPPRLPRPRPRPYPPPRP | -0.665
RRIRKRPPRLPRPRPRPGIYPRP | 0.107
RRIRCRPPRLPRPRPRPWFWPRP | 0.189
RRIRYRPPRLPRPRPRPNFKPRP | 0.633
RRIRGRPPRLPRPRPRPKMMPRP | 0.345
RRIRIRPPRLPRPRPRPQETPRP | -0.0344
RRIRCRPPRLPRPRPRPCDPPRP | -0.0532
RRIRTRPPRLPRPRPRPVMKPRP | 0.00771
RRIRVRPPRLPRPRPRPMPLPRP | -0.348
RRIRQRPPRLPRPRPRPVYVPRP | -0.216
RRIRHRPPRLPRPRPRPMDGPRP | -0.0367
RRIRIRPPRLPRPRPRPEFLPRP | -0.0199
